This passage reports Binding % results from patent publication US20240400715A1 (VIBRANT PHARMA, published 2024).

Test [1] deals with T1, human CD3ε/δ (ACRO systems, CDD-H52W1) (human, UniProt P07766 23-126; P04234 22-105).
T1 construct: bought recombinant heterodimer; also called human CD3 epsilon/delta; Human CD3ε/CD3δ
Briefly: serum-stability ELISA, Day 1 vs Day 0.
Method: (§1) The samples to be tested were centrifuged at 4° C. at 12000 rpm for 30 minutes to remove the precipitate. 200 μl of each sample to be tested (0.5 mg/ml) was collected in a 1.5 ml Eppendorf tube. An equal volume of human serum (GEMINI, H2OYOOK) was added, mixed thoroughly, and the mixture was incubated in a 37° C. constant temperature CO₂ incubator. For a total of 10 days, 40 μl samples was aspirated every day and stored at −20° C.
(§2) Enzyme-linked immunosorbent assay (ELISA) was used to test the bispecific antibodies' binding to human CEA and human CD3 epsilon/delta antigen. The steps are as follows: the antigen human CD3ε/δ (ACRO systems, CDD-H52W1) and the recombinant tumor antigen human CEA (CEACAM-5/CD66e, ACRO systems, CE5-H5226) were diluted to 1 μg/ml with PBS, and then added to the 96-well plate at 100 μl per well. The wells were coated overnight at 4° C. After washing 3 times with 0.05% PBST, 200 μl 5% skimmed milk powder was added to each well and incubated at 37° C. for 2 h. After washing 3 times with 0.05% PBST, 100 μl primary antibody sample (10 μg/ml) was added to each well, and incubated at 37° C. for 2 h. After washing 3 times with 0.05% PBST, 100 μl (1:6000) diluted secondary antibody goat anti-human Fc-HRP (sigma, A2170) was added to each well, incubated at room temperature for 1 h. After washing 8 times with 0.05% PBST, 50 μl TMB color developing solution was added to each well, and incubated at room temperature for 10-15 min. 50 μl 1 mM HCl was added to each well to stop the color development. 450 nm Absorbance (OD) was read.
(§3) The binding of antibodies to antigen was calculated according to the following formula: Binding (%)=[(ODdayn−ODb)/(ODday0−ODb)]×100%. ODdayn: experimental well (the protein was stored in the serum for n days); ODday0: control well (the protein was not stored in the serum); ODb: blank well (no primary antibody added).

Test [2] addresses T1, human CD3ε/δ (ACRO systems, CDD-H52W1). Briefly: serum-stability ELISA, Day 2 vs Day 0. In general terms: In an ELISA, binding on a coated surface is turned into a signal by an enzyme label.
Method: as §1, §2, §3
Test [3] has the same target. In words: serum-stability ELISA, Day 5 vs Day 0.
Method: as §1, §2, §3
Test [4] has the same target. In words: serum-stability ELISA, Day 6 vs Day 0.
Method: as §1, §2, §3
Test [5] shares this target. Briefly: serum-stability ELISA, Day 7 vs Day 0.
Method: as §1, §2, §3
The target is the same in test [6]. In words: serum-stability ELISA, Day 9 vs Day 0.
Method: as §1, §2, §3
For test [7] the target is unchanged. Briefly: serum-stability ELISA, Day 10 vs Day 0.
Method: as §1, §2, §3
The target is the same in test [8]. Briefly: serum-stability ELISA, Day 0 (reference).
The target is the same in test [9]. Briefly: serum-stability ELISA, Day 1 vs Day 0. This is another data set of the same source.
Method: as §1, §2, §3
Test [10] has the same target. Briefly: serum-stability ELISA, Day 2 vs Day 0. This is another data set of the same source.
Method: as §1, §2, §3
Test [11] has the same target. Briefly: serum-stability ELISA, Day 5 vs Day 0. This is another data set of the same source.
Method: as §1, §2, §3
Test [12] shares this target. In words: serum-stability ELISA, Day 6 vs Day 0. The source holds these as a separate data set.
Method: as §1, §2, §3
The target is the same in test [13]. Briefly: serum-stability ELISA, Day 7 vs Day 0. This is another data set of the same source.
Method: as §1, §2, §3
The target is the same in test [14]. In words: serum-stability ELISA, Day 9 vs Day 0. The source holds these as a separate data set.
Method: as §1, §2, §3
Test [15] shares this target. Briefly: serum-stability ELISA, Day 10 vs Day 0. The source holds these as a separate data set.
Method: as §1, §2, §3
Test [16] shares this target. In words: serum-stability ELISA, Day 0 (reference). The source holds these as a separate data set.

B1: 210 (Fab (Light)-Knob+Fab (Heavy)-Hole-CEA) (bispecific antibody, human IgG4 S228P, kappa, F234A L235A)
light: QAVVTQESALTTSPGETVTLTCRSSTGAVTTSNYANWVQEKPDHLFTGLIGGTNKRAPGVPARFSGSLIGDKAALTITGAQTEDEAIYFCALWYSNLWVFGGGTKVEIKRTVAAPSVFIFPPSDEQLKSGTASVVCLLNNFYPREAKVQWKVDNALQSGNSQESVTEQDSKDSTYSLSSTLTLSKADYEKHKVYACEVTHQGLSSPVTKSFNRGECESKYGPPCPPCPAPEAAGGPSVFLFPPKPKDTLMISRTPEVTCVVVDVSQEDPEVQFNWYVDGVEVHNAKTKPREEQFNSTYRVVSVLTVLHQDWLNGKEYKCKVSNKGLPSSIEKTISKAKGQPREPQVYTLPPCQEEMTKNQVSLWCLVKGFYPSDIAVEWESNGQPENNYKTTPPVLDSDGSFFLYSRLTVDKSRWQEGNVFSCSVMHEALHNHYTQKSLSLSL
heavy: EVKLLESGGGLVQPKGSLKLSCAASGFTFNTYAMNWVRQAPGKGLEWVARIRSKYNNYATYYADSVKDRFTISRDDSQSILYLQMNNLKTEDTAMYYCVRHGNFGNSYVSWFAYWGQGTLVTVSSASTKGPSVFPLAPCSRSTSESTAALGCLVKDYFPEPVTVSWNSGALTSGVHTFPAVLQSSGLYSLSSVVTVPSSSLGTKTYTCNVDHKPSNTKVDKRVESKYGPPCPPCPAPEAAGGPSVFLFPPKPKDTLMISRTPEVTCVVVDVSQEDPEVQFNWYVDGVEVHNAKTKPREEQFNSTYRVVSVLTVLHQDWLNGKEYKCKVSNKGLPSSIEKTISKAKGQPREPQVCTLPPSQEEMTKNQVSLSCAVKGFYPSDIAVEWESNGQPENNYKTTPPVLDSDGSFFLVSRLTVDKSRWQEGNVFSCSVMHEALHNRFTQKSLSLSLGGGGSGGGGSEVQLVESGGGFVQAGESLTLSCTSSTLTFTPYRMAWYRQAPGKQRDLVADISSGDGRTTNYADFAKGRFTISRDNIKNTVFLRMTNLKPEDTAVYYCNTFVSFVGIARSWGQGTQVTVSS
notes: two-chain format: VL-CL fused to knob Fc
With B1, the Binding % was found to be 105% in test [1]; 102% in [2]; 97.3% in test [3]; 101% in [4]; 102% in test [5]; 101% in [6]. Further, the figures for the Binding % in [7] and in [8] were 101% and 100%, respectively.

B2: 302 (TA3), configuration of FIG. 1W (bispecific antibody)
heavy: EVQLVESGGGLVQPGGSLRLSCAASGYSFTGYTMNWVRQAPGKGLEWVALINPYKGVSTYNQKFKDRFTISVDKSKNTAYLQMNSLRAEDTAVYYCARSGYYGDSDWYFDVWGQGTLVTVSSASTKGPSVFPLAPCSRSTSESTAALGCLVKDYFPEPVTVSWNSGALTSGVHTFPAVLQSSGLYSLSSVVTVPSSSLGTKTYTCNVDHKPSNTKVDKRVESKYGPPCPPCPAPEAAGGPSVFLFPPKPKDTLMISRTPEVTCVVVDVSQEDPEVQFNWYVDGVEVHNAKTKPREEQFNSTYRVVSVLTVLHQDWLNGKEYKCKVSNKGLPSSIEKTISKAKGQPREPQVYTLPPCQEEMTKNQVSLWCLVKGFYPSDIAVEWESNGQPENNYKTTPPVLDSDGSFFLYSRLTVDKSRWQEGNVFSCSVMHEALHNHYTQKSLSLSL
chain: EVQLVESGGGFVQAGESLTLSCTSSTLTFTPYRMAWYRQAPGKQRDLVADISSGDGRTTNYADFAKGRFTISRDNIKNTVFLRMTNLKPEDTAVYYCNTFVSFVGIARSWGQGTQVTVSSESKYGPPCPPCPAPEAAGGPSVFLFPPKPKDTLMISRTPEVTCVVVDVSQEDPEVQFNWYVDGVEVHNAKTKPREEQFNSTYRVVSVLTVLHQDWLNGKEYKCKVSNKGLPSSIEKTISKAKGQPREPQVCTLPPSQEEMTKNQVSLSCAVKGFYPSDIAVEWESNGQPENNYKTTPPVLDSDGSFFLVSRLTVDKSRWQEGNVFSCSVMHEALHNRFTQKSLSLSL
light: DIQMTQSPSSLSASVGDRVTITCRASQDIRNYLNWYQQKPGKAPKLLIYYTSRLESGVPSRFSGSGSGTDYTLTISSLQPEDFATYYCQQGNTLPWTFGQGTKVEIK
notes: not shown: kappa light chain constant domain (CL)
For the molecule B2, the Binding % in test [9] came out at 108%; in test [10] it was 104%; in test [11], 110%; in test [12], 107%; in test [13], 104%; in test [14] it was 103%. In addition, the Binding % in test [15] stood at 106%; in [16], 100%.

B3: 305 (TA6), configuration of FIG. 1W (bispecific antibody)
heavy: EVQLVQSGAEVKKPGASVKVSCKASGYTFTNYYIHWVRQAPGQGLEWIGWIYPGDGNTKYNEKFKGRATLTADTSTSTAYLELSSLRSEDTAVYYCARDSYSNYYFDYWGQGTLVTVSSASTKGPSVFPLAPCSRSTSESTAALGCLVKDYFPEPVTVSWNSGALTSGVHTFPAVLQSSGLYSLSSVVTVPSSSLGTKTYTCNVDHKPSNTKVDKRVESKYGPPCPPCPAPEAAGGPSVFLFPPKPKDTLMISRTPEVTCVVVDVSQEDPEVQFNWYVDGVEVHNAKTKPREEQFNSTYRVVSVLTVLHQDWLNGKEYKCKVSNKGLPSSIEKTISKAKGQPREPQVYTLPPCQEEMTKNQVSLWCLVKGFYPSDIAVEWESNGQPENNYKTTPPVLDSDGSFFLYSRLTVDKSRWQEGNVFSCSVMHEALHNHYTQKSLSLSL
chain: EVQLVESGGGFVQAGESLTLSCTSSTLTFTPYRMAWYRQAPGKQRDLVADISSGDGRTTNYADFAKGRFTISRDNIKNTVFLRMTNLKPEDTAVYYCNTFVSFVGIARSWGQGTQVTVSSESKYGPPCPPCPAPEAAGGPSVFLFPPKPKDTLMISRTPEVTCVVVDVSQEDPEVQFNWYVDGVEVHNAKTKPREEQFNSTYRVVSVLTVLHQDWLNGKEYKCKVSNKGLPSSIEKTISKAKGQPREPQVCTLPPSQEEMTKNQVSLSCAVKGFYPSDIAVEWESNGQPENNYKTTPPVLDSDGSFFLVSRLTVDKSRWQEGNVFSCSVMHEALHNRFTQKSLSLSL
light: DIVMTQSPDSLAVSLGERATINCKSSQSLLNSRTRKNYLAWYQQKPGQPPKLLIYWASTRESGVPDRFSGSGSGTDFTLTISSLQAEDVAVYYCTQSFILRTFGQGTKVEIK
notes: as for B2
For the molecule B3, the Binding % is 112% in test [9]; 109% in [10]; 110% in test [11]; 111% in test [12]; 110% in test [13]; 109% in test [14]. In addition, the Binding % in test [15] came out at 108%; in test [16] it was 100%.

B4: 304 (TA5), configuration of FIG. 1W (bispecific antibody)
heavy: DVQLVQSGAEVKKPGASVKVSCKASGYTFTRYTMHWVRQAPGQGLEWIGYINPSRGYTNYADSVKGRFTITTDKSTSTAYMELSSLRSEDTATYYCARYYDDHYCLDYWGQGTTVTVSSASTKGPSVFPLAPCSRSTSESTAALGCLVKDYFPEPVTVSWNSGALTSGVHTFPAVLQSSGLYSLSSVVTVPSSSLGTKTYTCNVDHKPSNTKVDKRVESKYGPPCPPCPAPEAAGGPSVFLFPPKPKDTLMISRTPEVTCVVVDVSQEDPEVQFNWYVDGVEVHNAKTKPREEQFNSTYRVVSVLTVLHQDWLNGKEYKCKVSNKGLPSSIEKTISKAKGQPREPQVYTLPPCQEEMTKNQVSLWCLVKGFYPSDIAVEWESNGQPENNYKTTPPVLDSDGSFFLYSRLTVDKSRWQEGNVFSCSVMHEALHNHYTQKSLSLSL
chain: EVQLVESGGGFVQAGESLTLSCTSSTLTFTPYRMAWYRQAPGKQRDLVADISSGDGRTTNYADFAKGRFTISRDNIKNTVFLRMTNLKPEDTAVYYCNTFVSFVGIARSWGQGTQVTVSSESKYGPPCPPCPAPEAAGGPSVFLFPPKPKDTLMISRTPEVTCVVVDVSQEDPEVQFNWYVDGVEVHNAKTKPREEQFNSTYRVVSVLTVLHQDWLNGKEYKCKVSNKGLPSSIEKTISKAKGQPREPQVCTLPPSQEEMTKNQVSLSCAVKGFYPSDIAVEWESNGQPENNYKTTPPVLDSDGSFFLVSRLTVDKSRWQEGNVFSCSVMHEALHNRFTQKSLSLSL
light: DIVLTQSPATLSLSPGERATLSCRASQSVSYMNWYQQKPGKAPKRWIYDTSKVASGVPARFSGSGSGTDYSLTINSLEAEDAATYYCQQWSSNPLTFGGGTKVEIK
notes: VL row printed 'TAS VL', read as TA5 VL; full chains assembled from parts; not shown: kappa light chain constant domain (CL)
For B4, the Binding % in test [9] is 108%; in test [10], 106%; in test [11] it was 100%; in [12] it was 105%; in [13] it was 107%; in [14], 101%. The Binding % was 101% in test [15] and 100% in test [16].
